Blank lines part the entries; values can stand above or below the binder they belong to.
Assays:
[1] = target: T1, RNF43 (UniProt Q68DV7 24-197, limits assumed); assay: affinity for RNF43; method and format not stated; WT anti-RNF43 A5
T1 sequence (looked up): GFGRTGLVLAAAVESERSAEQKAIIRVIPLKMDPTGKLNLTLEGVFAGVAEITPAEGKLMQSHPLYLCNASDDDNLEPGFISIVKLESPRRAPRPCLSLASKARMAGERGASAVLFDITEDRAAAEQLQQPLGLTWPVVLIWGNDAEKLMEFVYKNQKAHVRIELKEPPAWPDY

[2] = target: T1, RNF43; assay: affinity for RNF43; method and format not stated; S113A mutant of CDR H3
[3] = target: T1, RNF43; assay: affinity for RNF43; method and format not stated; F115A mutant of CDR H3

Kd [1]: 12.5 nM
B1: anti-RNF43 A5 (WT RNF43 binder) (Fab, V domains shown)
VH: EVQLVESGGGLVQPGGSLRLSCAASGFNIYYYSMHWVRQAPGKGLEWVASISPYYSYTSYADSVKGRFTISADTSKNTAYLQMNSLRAEDTAVYYCARYGYYGWDYHRYSAFDYWGQGTLVTVSS
VL: DIQMTQSPSSLSASVGDRVTITCRASQSVGSALAWYQQKPGKAPKLLIYSASSLYSGVPSRFSGSRSGTDFTLTISSLQPEDFATYYCQQAYPITFGQGTKVEIKR
notes: also called WT RNF43 A5; clone anti-RNF43 A5

Kd [2]: 40 nM
B2: anti-RNF43 A5 alanine mutant S113A (CDR H3) (Fab, V domains shown)
VH: EVQLVESGGGLVQPGGSLRLSCAASGFNIYYYSMHWVRQAPGKGLEWVASISPYYSYTSYADSVKGRFTISADTSKNTAYLQMNSLRAEDTAVYYCARYGYYGWDYHRYAAFDYWGQGTLVTVSS
VL: DIQMTQSPSSLSASVGDRVTITCRASQSVGSALAWYQQKPGKAPKLLIYSASSLYSGVPSRFSGSRSGTDFTLTISSLQPEDFATYYCQQAYPITFGQGTKVEIKR
notes: also called 40 nM

Kd [3]: 125 nM
B3: anti-RNF43 A5 alanine mutant F115A (CDR H3) (Fab, V domains shown)
VH: EVQLVESGGGLVQPGGSLRLSCAASGFNIYYYSMHWVRQAPGKGLEWVASISPYYSYTSYADSVKGRFTISADTSKNTAYLQMNSLRAEDTAVYYCARYGYYGWDYHRYSAADYWGQGTLVTVSS
VL: DIQMTQSPSSLSASVGDRVTITCRASQSVGSALAWYQQKPGKAPKLLIYSASSLYSGVPSRFSGSRSGTDFTLTISSLQPEDFATYYCQQAYPITFGQGTKVEIKR

— US20240026031A1 (University of California, published 2024)
